Experimental data from PMC12208556.

Target: recombinant full-length thrombospondin-1 (human) (UniProt P07996)
Test: SPR; BIAcore 3000; TSP-1 bound covalently to CM5 chips at 0.1 uM; complement proteins as analytes at 12.3, 37.03, 111.1, 333.3, 1,000 nM in PBS plus 0.05% Tween 20; 1:1 Langmuir binding model; average of 3 repeated measurements

Sequence of recombinant full-length thrombospondin-1 (human) (P07996 19-1170): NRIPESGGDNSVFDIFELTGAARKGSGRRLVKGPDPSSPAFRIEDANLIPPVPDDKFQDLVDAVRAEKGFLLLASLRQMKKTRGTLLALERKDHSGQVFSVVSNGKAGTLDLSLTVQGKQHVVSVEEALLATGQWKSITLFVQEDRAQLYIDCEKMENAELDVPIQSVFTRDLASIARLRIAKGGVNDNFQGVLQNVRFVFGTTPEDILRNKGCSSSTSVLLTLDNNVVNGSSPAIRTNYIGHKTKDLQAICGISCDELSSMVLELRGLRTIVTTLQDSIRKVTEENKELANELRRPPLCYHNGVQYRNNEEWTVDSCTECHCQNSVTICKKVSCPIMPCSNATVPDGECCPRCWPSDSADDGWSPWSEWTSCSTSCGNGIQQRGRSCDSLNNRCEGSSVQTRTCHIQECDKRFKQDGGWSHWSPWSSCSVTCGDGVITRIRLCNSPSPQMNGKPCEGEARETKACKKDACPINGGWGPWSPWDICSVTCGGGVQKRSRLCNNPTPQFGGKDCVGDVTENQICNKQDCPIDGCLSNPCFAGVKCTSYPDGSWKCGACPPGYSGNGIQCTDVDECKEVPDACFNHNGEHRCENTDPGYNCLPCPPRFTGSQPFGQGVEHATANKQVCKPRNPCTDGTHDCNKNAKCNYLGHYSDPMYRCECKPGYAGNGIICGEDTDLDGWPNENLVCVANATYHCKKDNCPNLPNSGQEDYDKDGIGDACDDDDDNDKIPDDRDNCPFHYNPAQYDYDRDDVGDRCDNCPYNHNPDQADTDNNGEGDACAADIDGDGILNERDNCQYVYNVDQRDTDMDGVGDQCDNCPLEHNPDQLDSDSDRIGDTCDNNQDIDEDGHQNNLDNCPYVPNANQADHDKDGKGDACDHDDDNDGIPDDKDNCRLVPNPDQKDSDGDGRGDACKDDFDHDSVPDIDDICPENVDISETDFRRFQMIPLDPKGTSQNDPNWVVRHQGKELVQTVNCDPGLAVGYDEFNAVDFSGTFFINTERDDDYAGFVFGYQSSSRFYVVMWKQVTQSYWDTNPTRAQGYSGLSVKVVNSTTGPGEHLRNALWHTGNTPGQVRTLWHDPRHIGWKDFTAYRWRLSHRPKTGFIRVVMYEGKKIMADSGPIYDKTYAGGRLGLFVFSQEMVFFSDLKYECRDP

complement C3 (natural protein)
Kd: 127 nM

complement C5 (natural protein)
Kd: 47.2 nM
